Results as given in article PMC6929975, “A supramolecular protein chaperone for vaccine delivery” (Theranostics, 2020).

Test system: bone marrow-derived dendritic cells (BMDCs)
Test: Antigen uptake by BMDCs (confocal microscopy; OVA-Rhod)
Format: cell-based
Conditions: 1 h, 37 °C, OVA-Rhod 2.5 µg mL^-1 (soluble) or Comp./OVA = 10:1 w/w
Description: Figure 5 Vaccine promoting antigen uptake by BMDCs. […] Magnification: 63 ×. (B) The percentage of OVA-Rhod-positive cells is shown. (C) Total fluorescence intensity of OVA-Rhod was measured; total fluorescence intensity (FI) = % of positive cells × mean fluorescence intensity. The bars shown represent the mean ± SE, and differences among groups were determined using one-way ANOVA. The asterisks indicate the significance of differences between the Vac-1 group and the indicated group. *: p < 0.05, **: p < 0.01.

B1: RBITC-OVA: OVA labelled with Rhodamine b isothiocyanate, soluble (protein, UniProt P01012 2-386, looked up)
Ovalbumin: GSIGAASMEFCFDVFKELKVHHANENIFYCPIAIMSALAMVYLGAKDSTRTQINKVVRFDKLPGFGDSIEAQCGTSVNVHSSLRDILNQITKPNDVYSFSLASRLYAEERYPILPEYLQCVKELYRGGLEPINFQTAADQARELINSWVESQTNGIIRNVLQPSSVDSQTAMVLVNAIVFKGLWEKAFKDEDTQAMPFRVTEQESKPVQMMYQIGLFRVASMASEKMKILELPFASGTMSMLVLLPDEVSGLEQLESIINFEKLTEWTSSNVMEERKIKVYLPRMKMEEKYNLTSVLMAMGITDVFSSSANLSGISSAESLKISQAVHAAHAEINEAGREVVGSAEAGVDAASVSEEFRADHPFLFCIKHIATNAVLFFGRCVSP
modifications: rhodamine B isothiocyanate label
notes: OVA labelled with Rhodamine b isothiocyanate, soluble
uptake of RBITC-OVA by DCs: poor uptake
